Consider 2 molecules from paper PMC9370829 (Nature, 2022).

The labels stand for the following.
B1: UvrB, individually purified (natural protein, E. coli, UniProt P0A8F8 1-673, looked up)
chain: MSKPFKLNSAFKPSGDQPEAIRRLEEGLEDGLAHQTLLGVTGSGKTFTIANVIADLQRPTMVLAPNKTLAAQLYGEMKEFFPENAVEYFVSYYDYYQPEAYVPSSDTFIEKDASVNEHIEQMRLSATKAMLERRDVVVVASVSAIYGLGDPDLYLKMMLHLTVGMIIDQRAILRRLAELQYARNDQAFQRGTFRVRGEVIDIFPAESDDIALRVELFDEEVERLSLFDPLTGQIVSTIPRFTIYPKTHYVTPRERIVQAMEEIKEELAARRKVLLENNKLLEEQRLTQRTQFDLEMMNELGYCSGIENYSRFLSGRGPGEPPPTLFDYLPADGLLVVDESHVTIPQIGGMYRGDRARKETLVEYGFRLPSALDNRPLKFEEFEALAPQTIYVSATPGNYELEKSGGDVVDQVVRPTGLLDPIIEVRPVATQVDDLLSEIRQRAAINERVLVTTLTKRMAEDLTEYLEEHGERVRYLHSDIDTVERMEIIRDLRLGEFDVLVGINLLREGLDMPEVSLVAILDADKEGFLRSERSLIQTIGRAARNVNGKAILYGDKITPSMAKAIGETERRREKQQKYNEEHGITPQGLNKKVVDILALGQNIAKTKAKGRGKSRPIVEPDNVPMDMSPKALQQKIHELEGLMMQHAQNLEFEEAAQIRDQLHQLRELFIAAS
B2: UvrA, individually purified (natural protein, E. coli, UniProt P0A698 1-940, looked up)
chain: MDKIEVRGARTHNLKNINLVIPRDKLIVVTGLSGSGKSSLAFDTLYAEGQRRYVESLSAYARQFLSLMEKPDVDHIEGLSPAISIEQKSTSHNPRSTVGTITEIHDYLRLLFARVGEPRCPDHDVPLAAQTVSQMVDNVLSQPEGKRLMLLAPIIKERKGEHTKTLENLASQGYIRARIDGEVCDLSDPPKLELQKKHTIEVVVDRFKVRDDLTQRLAESFETALELSGGTAVVADMDDPKAEELLFSANFACPICGYSMRELEPRLFSFNNPAGACPTCDGLGVQQYFDPDRVIQNPELSLAGGAIRGWDRRNFYYFQMLKSLADHYKFDVEAPWGSLSANVHKVVLYGSGKENIEFKYMNDRGDTSIRRHPFEGVLHNMERRYKETESSAVREELAKFISNRPCASCEGTRLRREARHVYVENTPLPAISDMSIGHAMEFFNNLKLAGQRAKIAEKILKEIGDRLKFLVNVGLNYLTLSRSAETLSGGEAQRIRLASQIGAGLVGVMYVLDEPSIGLHQRDNERLLGTLIHLRDLGNTVIVVEHDEDAIRAADHVIDIGPGAGVHGGEVVAEGPLEAIMAVPESLTGQYMSGKRKIEVPKKRVPANPEKVLKLTGARGNNLKDVTLTLPVGLFTCITGVSGSGKSTLINDTLFPIAQRQLNGATIAEPAPYRDIQGLEHFDKVIDIDQSPIGRTPRSNPATYTGVFTPVRELFAGVPESRARGYTPGRFSFNVRGGRCEACQGDGVIKVEMHFLPDIYVPCDQCKGKRYNRETLEIKYKGKTIHEVLDMTIEEAREFFDAVPALARKLQTLMDVGLTYIRLGQSATTLSGGEAQRVKLARELSKRGTGQTLYILDEPTTGLHFADIQQLLDVLHKLRDQGNTIVVIEHNLDVIKTADWIVDLGPEGGSGGGEILVSGTPETVAECEASHTARFLKPML

Data set [1] concerns the target B2. In words: cross-linking.
Data set [2] deals with the molecule itself. The data set can be described thus: cross-linking.

Turning to B1, the binding result in data set [1] was “binds”.

Turning to B2, the binding result in data set [2] was “binds”.
